Reference: article doi:10.1101/2025.05.20.655083 (2025)
Where no end group is shown, it is not given here. The star is where a group is joined. FITC = O=C1OC2(c3ccc(O)cc3Oc3cc(O)ccc32)c2ccc(NC(=S)*)cc21; Ahx = NCCCCCC(=O)O

Assays:
Test in all cases: FP
human importin α1 ΔIBB = human importin α1 ΔIBB (human)
mouse importin α2 ΔIBB = mouse importin α2 ΔIBB (mouse, UniProt P52293 70-529)
human importin α7 ΔIBB = human importin α7 ΔIBB (human)
human importin α5 ΔIBB = human importin α5 ΔIBB (human)
Chain of human importin α5 ΔIBB (human) (chain, as listed by the source mutant): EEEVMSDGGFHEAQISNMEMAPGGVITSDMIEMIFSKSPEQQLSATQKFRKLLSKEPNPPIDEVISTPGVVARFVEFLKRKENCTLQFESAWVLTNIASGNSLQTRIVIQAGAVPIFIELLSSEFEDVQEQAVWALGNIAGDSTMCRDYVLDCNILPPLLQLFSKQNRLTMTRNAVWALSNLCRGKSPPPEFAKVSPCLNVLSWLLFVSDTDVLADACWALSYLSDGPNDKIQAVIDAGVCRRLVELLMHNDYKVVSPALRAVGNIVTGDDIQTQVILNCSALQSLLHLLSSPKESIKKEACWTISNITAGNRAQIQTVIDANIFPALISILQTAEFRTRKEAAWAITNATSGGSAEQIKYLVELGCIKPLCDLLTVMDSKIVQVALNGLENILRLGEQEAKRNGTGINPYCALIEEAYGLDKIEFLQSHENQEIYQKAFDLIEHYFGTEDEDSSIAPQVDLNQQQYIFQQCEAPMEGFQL

Chain of human importin α7 ΔIBB (human) (chain, as listed by the source mutant): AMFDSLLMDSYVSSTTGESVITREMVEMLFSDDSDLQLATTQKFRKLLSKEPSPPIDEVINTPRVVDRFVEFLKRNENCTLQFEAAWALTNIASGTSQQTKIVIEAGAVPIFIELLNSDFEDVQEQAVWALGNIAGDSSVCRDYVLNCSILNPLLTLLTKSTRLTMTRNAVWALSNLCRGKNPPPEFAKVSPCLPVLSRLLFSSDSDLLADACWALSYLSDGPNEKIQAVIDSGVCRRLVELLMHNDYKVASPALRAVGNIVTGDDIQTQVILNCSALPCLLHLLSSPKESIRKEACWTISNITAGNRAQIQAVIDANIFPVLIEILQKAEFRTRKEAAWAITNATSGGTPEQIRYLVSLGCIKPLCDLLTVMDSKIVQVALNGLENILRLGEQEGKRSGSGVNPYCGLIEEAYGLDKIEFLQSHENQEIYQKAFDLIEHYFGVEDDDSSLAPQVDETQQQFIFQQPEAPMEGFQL

{FITC-Ahx}-IAEYKRRHNIGSDGLPNKRRRCLF [BSB PyV-LTA;NLS peptide (Black Sea Bass polyomavirus large tumor antigen residues 660-683)] was tested, and the Kd (human importin α1 ΔIBB) was 31 nM, the Kd (mouse importin α2 ΔIBB) was 4 nM and the Kd (human importin α7 ΔIBB) was 2 nM. It also gave a Kd (human importin α5 ΔIBB) of 12 nM.
